Measured values reported in patent US20240409645A1.
Changes are numbered by the printed parent chain. Values belong to the binder of their own block, whether it stands above or below them.

Key:
mouse IL-2Rβ (mouse) = biological target: T1, mouse IL-2Rβ (mouse) (UniProt P16297); test: P.E. binding ELISA on coated protein
T1 sequence (looked up): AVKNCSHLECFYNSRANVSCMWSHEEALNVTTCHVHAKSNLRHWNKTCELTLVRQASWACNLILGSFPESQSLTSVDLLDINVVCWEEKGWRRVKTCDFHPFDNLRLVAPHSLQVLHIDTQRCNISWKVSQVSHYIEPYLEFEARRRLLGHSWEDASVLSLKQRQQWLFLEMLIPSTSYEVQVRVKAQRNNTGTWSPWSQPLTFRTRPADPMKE

mouse IL-2Rγ (mouse) = biological target: T2, mouse IL-2Rγ (mouse) (UniProt P34902); test: PE binding ELISA, periplasmic extract on coated protein
T2 sequence (looked up): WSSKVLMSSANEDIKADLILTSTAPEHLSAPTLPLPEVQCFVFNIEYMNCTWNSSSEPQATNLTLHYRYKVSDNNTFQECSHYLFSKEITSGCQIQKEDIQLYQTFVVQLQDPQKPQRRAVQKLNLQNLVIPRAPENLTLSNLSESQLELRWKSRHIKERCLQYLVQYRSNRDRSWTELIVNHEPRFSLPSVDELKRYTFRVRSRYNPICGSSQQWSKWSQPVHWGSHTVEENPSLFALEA

B3: FJ1427_P035MP03E10 (VHH)
VHH: EVQLVESGGGLVQPGGSLRLSCAASGFTFRNYAMSWVRQAPGKGLEWVGGITGEGLGTIYQDSVEGRFTISRNNAKNTLYLQMNSLRSEDTAVYYCTKMASGTLFRDKPYEYTSRGQGTQVTVSS
- P.E. binding ELISA OD (mouse IL-2Rβ (mouse)): 0.048 OD450 nm

B4: 30-MP04C03 (VHH)
VHH: EVQLVESGGGWVQDGGSLRLSCALSGRTFVRGIMGWFRQAPGKEREFVARIIWHINSTRYADSVKGRFTISRDSAKNTMYLQMDSLRPEDTAVYYCAARDRYGSGNSLSPSAYDYWGQGTQVTVSS
- OD (PE binding ELISA) (mouse IL-2Rγ (mouse)): 0.048 OD450 nm

B5: FJ1427_P035MP04F02 (VHH)
VHH: QLQLVESGGGLVQAGGSLTLSCAASGRTFSRDVVGWFRQAPGKEREFVASISRSGDGTFYTDSVKGRFTISSRDNAKNTVLLQMNSLKVEDTAVYYCAAGDGWSTYDYWGQGTQVTVSS
- OD (PE binding ELISA) (mouse IL-2Rγ (mouse)): 0.049 OD450 nm

B6: FJ1427_P035MP03G10 (VHH)
VHH: QVQLVESGGGLVQAGGSLRLSCAASGRSYAMGWFRQAPGKEREFVAAISWSASSTYYSESVKGRFTISRENAKNTVYLQMNSLKPEDTAVYYCAVRASPFVAGSYDPSDDPADYGSWGQGTQVIVSS
- P.E. binding ELISA OD (mouse IL-2Rβ (mouse)): 0.048 OD450 nm

B7: 32-MP04A08 (VHH)
VHH: QVQLVESGGGLVQAGGSLRLSCAASGRTFGSTAVGWFRQVPGKEREFVSAINRSGSATTYADSVKGRFTISRDNAKNTVYLQMNSLTPEDTGVYYCAADSLPYGRPYYFQRSAGEYDYWGQGTQVTVSS
- OD (PE binding ELISA) (mouse IL-2Rγ (mouse)): 0.05 OD450 nm

B9: FJ1427_P035MP06B02 (VHH)
VHH: QVQLVESGGGLVQAGGSLRLSCVVSGDVFVRYTMAWFRQAPGKEREFVAAVTDSGRTTEYVDSVKGRFTVSRDNAKNTVYLQMNNLKPEDTAVYYCAANTDYFQIRSVDNNAWGQGTQVTVSS
- P.E. binding ELISA OD (mouse IL-2Rβ (mouse)): 0.048 OD450 nm

B10: 33-MP04C09 (VHH)
VHH: QLQLVESGGGLVQAGGSLRLSCAASGPTFSRVAVGWFRQAPGKEREFVAAVNRPATMTKYADSVKGRFTVSRDNAKNTVDLQMNSMKPEDTAVYYCAADSVPYGRPYYWQTSAGDYDYWGQGTQVTVSS
- OD (PE binding ELISA) (mouse IL-2Rγ (mouse)): 0.047 OD450 nm

B11: FJ1427_P035MP04B02 (VHH)
VHH: QVQLVESGGGWVQVGESLRLSCAPSGRTFVSGIMGWFRQTPGKEREFVARIILNNNSTRYTDSVKGRFTISRDSAKNTMYLQMNTLRPEDTAVYYCAARDRYGSGNSLSPSAYDYWGQGTQVTVSS
- OD (PE binding ELISA) (mouse IL-2Rγ (mouse)): 0.048 OD450 nm

B14: FJ1427_P035MP04B03 (VHH)
VHH: QVQLQESGGGLVQAGESLRLSCAASGPTASRVAVAWFRQVPGKEREFVAVVNRPGTMTKYADSVKGRFTISRDSAKNTVYLQMNSLKPEDTAVYYCAADSVPYGRPYYFQTSAGNYDYWGQGTQVTVSS
- OD (PE binding ELISA) (mouse IL-2Rγ (mouse)): 0.048 OD450 nm

B17: FJ1427_P035MP04C01 (VHH)
VHH: QVQLVESGGGLVQAGGSLTLSCAASGRTFSTDVVGWFRQAPGKEREFVASISRSGDGIYYDDSVKGRFTISRNNAWNTVNLQMNNLKVEDTAVYYCAAGDGWSTYDYWGQGTQVTVSS
- OD (PE binding ELISA) (mouse IL-2Rγ (mouse)): 0.049 OD450 nm

B20: FJ1427 P035MP03B11 (VHH)
VHH: EVQLVESGGGLVQAGGSLRLACALSGDVFVRYTMAWFRQAPGKEREFVASVTDSGRTTDYVASVQGRFTVSRDNNKNTVYLQMNSLKPEDTAVYYCAANTDYFQIRSLDRNTWGQGTQVTVSS
- P.E. binding ELISA OD (mouse IL-2Rβ (mouse)): 0.052 OD450 nm

B21: FJ1427 P035MP03B12 (VHH)
VHH: B20 VHH with A21S, L24A, S50A, T58A, A62D, Q65K, N75A, S85N
- P.E. binding ELISA OD (mouse IL-2Rβ (mouse)): 0.049 OD450 nm

B22: FJ1427 P035MP03H10 (VHH)
VHH: QVQLVESGGGLVQAGGSLRLSCAASGRTFSTTEMGWFRQAPGKEREFVAAITWTGRGTMYAESVEGRFTISRENAKNMVYLQMNSLKPEDTAIYYCAAARRGRAAVRSEGGYDFWGQGTQVTVSS
- P.E. binding ELISA OD (mouse IL-2Rβ (mouse)): 0.049 OD450 nm

B23: 35-MP07G01 (VHH)
VHH: QVQLQESGGGLVQGGGSLRLSCAASGGIFSSYAMGWFRQAPGKEREFVAAISRSGRSTNYADSVKGRFTISRDNAKSTVYLQMNSLKPEETAVYYCAAGRYYNSAYDPSPGDFGSWGHGTQVTVSS
- OD (PE binding ELISA) (mouse IL-2Rγ (mouse)): 0.045 OD450 nm

Continued, values first:

- P.E. binding ELISA OD (mouse IL-2Rβ (mouse)): 0.049 OD450 nm
B1: FJ1427 P035MP03D11 (VHH)
VHH: QVQLVESGGGLVQAGGSLRLSCAASGRTFSTTDVGWFRQAPGKEREFVAAITWSSHSTLYADSVEGRFTVTRENAKNTVYLQMNSLKPEDTAVYYCAAVRRGWAVVRTEGAYDFWGQGTQVTVSA

- P.E. binding ELISA OD (mouse IL-2Rβ (mouse)): 0.047 OD450 nm
B2: FJ1427_P035MP03D10 (VHH)
VHH: QVQLQESGGGLVQAGDSLRLSCVVSGRDFSGYTMGWFRQPPGKEREFVALITWSTGRVHYTDSVEGRFTISRDSAKNTVYLQMNSLKPEDTAVYTCAAGRVGYTTNLHSYDYSGQGTQVIVSA

- P.E. binding ELISA OD (mouse IL-2Rβ (mouse)): 0.05 OD450 nm
B8: FJ1427_P035MP03E11 (VHH)
VHH: B9 VHH with Q1E, K87E

- OD (PE binding ELISA) (mouse IL-2Rγ (mouse)): 0.052 OD450 nm
B12: FJ1427_P035MP04A03 (VHH)
VHH: B11 VHH with Q1E

- OD (PE binding ELISA) (mouse IL-2Rγ (mouse)): 0.049 OD450 nm
B13: FJ1427_P035MP04E02 (VHH)
VHH: B11 VHH

- P.E. binding ELISA OD (mouse IL-2Rβ (mouse)): 0.049 OD450 nm
B15: FJ1427 P035MP06G01 (VHH)
VHH: EVQLVESGGGLVQAGDSLRLSCVVSGRGFSTYTMGWFRQAPGKEREFVAAITWSTGRTSYADSVKGRFTISRENAENTVYLQMNSLELEDTAVYYCATDQVLWTTRPRDMRYWGQGTQVTVSF

- OD (PE binding ELISA) (mouse IL-2Rγ (mouse)): 0.048 OD450 nm
B16: 27-MP04G01 (VHH)
VHH: B17 VHH with S25P, S30G, N85S

- OD (PE binding ELISA) (mouse IL-2Rγ (mouse)): 0.05 OD450 nm
B18: 29-MP04H02 (VHH)
VHH: QVQLVESGGGLVQAGGSLRLACVASGLTFDNYYMGWFRQAPGKEREFVAGIIWNGDHTAYADSIKGRFTISRDNAKNTAYLRMNSLKPEDTAVYYCAATFWIERATTPDIGQYAYWGQGTQVTVSS

- P.E. binding ELISA OD (mouse IL-2Rβ (mouse)): 0.047 OD450 nm
B19: FJ1427 P035MP03C12 (VHH)
VHH: QVQLVESGGGLVQAGGSLRLSCAASGRAFSTYSMGWFRQTPGKEREFVAIISESGGIIDYGDSVKGRFTLSRDNAKNTVSLQMSSLQPEDTAVYYCAAARDWFARTAYQYDYWGQGTQVTVSA

- P.E. binding ELISA OD (mouse IL-2Rβ (mouse)): 0.048 OD450 nm
B24: FJ1427 P035MP03F11 (VHH)
VHH: QVQLVESGGGLAQAGGSLRLSCAASGRTFSQDAKAWFRQAPGKEREFVAAITWSGRDTDYADSVKGRFTIARDNAKNTVYLQMDSLKPEDTAVYYCAVYPQGTIGPYFRSSNHYDYWGQGTQVTVSS
